Publication PMC8512817

target: A9UPE9 PDZ (A9UPE9_MONBE PDZ domain, residues 7-98) (Monosiga brevicollis); assay: fluorescence polarisation

Substance	Ki
A9UP44 peptide (QSESRL)	64 µM
A9UWP5_MONVE peptide (GSESSV)	490 µM
A9UXE1 peptide (QDETAL)	460 µM
A9V6G5_MONBE peptide (HRESTV)	97 µM
A9V7Z4 peptide (EDETAL)	580 µM
B1AR peptide (ASESKV)	95 µM
BPIX peptide (WDETNL)	330 µM
DLL1/DLL4 peptide (VIATEV)	240 µM
TYRP1 peptide (PNQSVV)	97 µM
